Measured values published in patent US20260263614A1, “ANTIBODY DRUG CONJUGATES THAT BIND CDCP1 AND USES THEREOF” (Pheon Therapeutics Ltd, priority 2022, published 2026).
Read-outs that look alike come from different tables or passages of the source.

Columns and labels:
[1] = tested on: linear double-stranded TyrT fragment; test: DNA cross-linking assay; format: biochemical
Procedure: The preparation of the TyrT DNA fragment has been previously described. Briefly, the sequence which had been cloned into the BamHI site of pUC18 was obtained by cutting with HindIII and EcoRI. Radiolabelled DNA fragments were prepared by filling in the 3′-end of the HindIII site with [α-^32P]dATP using Klenow DNA polymerase (exo-).
The radiolabelled DNA fragment was separated from the remainder of the plasmid DNA on a 6% non-denaturing polyacrylamide gel. The gel (20 cm long, 0.3 mm thick) was run at 400 V in 1×TBE running buffer for about 1-2 h, until the bromophenol blue had run most of the way down the gel. The glass plates were separated and the position of the labelled DNA fragment was established by short (1 min) exposure to an X-ray film. The relevant band was then cut from the gel and the radiolabelled DNA eluted by adding 300 μL 10 mM Tris-HCl, pH 7.5 containing 0.1 mM EDTA and gently agitating overnight at room temperature. The eluted DNA was finally precipitated with ethanol and re-suspended in a suitable volume of 10 mM Tris-HCl, pH 7.5 containing 0.1 mM EDTA buffer so as to give at least 10 counts per second/μL on a hand-held Geiger counter. With fresh plasmid and α-^32P-dATP this process typically generated about 150 μL of radiolabelled fragment DNA. The absolute concentration of the DNA is not important, and it is typically lower than 10 nM.
Radiolabelled DNA ([…]) was mixed with 1.5 μL ligand solution of various concentrations (10 μM-10 nM) and incubated overnight at 37° C.
After overnight incubation, the samples were mixed with 7 μL loading solution (80% formamide containing 10 mM EDTA, 10 mM NaOH, 0.1% bromophenol blue) and incubated at 65° C. for 5 min. Control 1 (C1) for native double-stranded DNA consisted of 1.5 μL labelled DNA, 1.5 μL 10 mM Tris-HCl, pH 7.5 containing 0.1 mM EDTA and 7 μL 1× loading dye. […]
The ability of 26 to cross-link DNA was evaluated using an assay involving a linear double-stranded TyrT fragment (FIG. 17). […]

[2] = tested on: HexA and MS1 DNA fragments; test: DNA footprinting; format: binding
Procedure: Footprinting reactions were performed as using previously described methods using the DNA fragments HexA and HexB, which together contain all 64 symmetrical hexanucleotide sequences, and MS1 that contains all possible […] tetranucleotide sequences. The DNA fragments were obtained by cutting the parent plasmids with HindIII and SacI (for HexA and MS1) or EcoRI and PstI (for HexB), and were labelled at the 3′-end of the HindIII or EcoRI sites with [α-^32P]dATP using reverse transcriptase or exo-Klenow fragment. After gel purification, the radiolabelled DNA was dissolved in 10 mM Tris-HCl pH 7.5 containing 0.1 mM EDTA, at a concentration of about 10 c.p.s per μL as determined on a hand held Geiger counter. 1.5 μL of radiolabelled DNA was mixed with 1.5 μL ligand that had been freshly diluted in 10 mM Tris-HCl pH 7.5, containing 10 mM NaCl. The complexes were left to equilibrate for at least 12 hours before digesting with 2 μL DNase I (final concentration about 0.01 units/mL). The reactions were stopped after 1 minute by adding 4 μL of formamide containing 10 mM EDTA and bromophenol blue (0.1% w/v). The samples were then heated at 100° C. for 3 minutes before loading onto 8% denaturing polyacrylamide gels containing 8 M urea. Gels were fixed in 10% acetic acid, transferred to 3 MM paper, dried and exposed to a phosphor screen overnight, before analysing with a Typhoon phosphorimager
The DNA sequence selectivity profile of the molecules was investigated using a modification of a previously established DNA footprinting assay. Following an overnight incubation of the ligand-DNA complexes, the mixture was mixed with strand separation buffer containing 10 mM EDTA, 10 mM NaOH, 0.1% bromophenol blue, 80% formamide and incubated at 100° C. for 3 min. The mixture was then immediately cooled on ice and run on an 8% denaturing gel. […] The possible adducts formed within the HexA sequences are shown in FIGS. 20 and 21, respectively.

[3] = comparison value of another MMAE ADC; cited from earlier work
[4] = Comparative repeat-dose rat toxicity study; format: in vivo; settings: DAR 8 on a Trastuzumab backbone; IV once every 3 weeks, two doses, 20 or 60 mg/kg
[5] = biological target: T1, huCDCP1(F30-T667 Q525)-8×His_T3 (human, UniProt Q9H5V8 30-667); test: SPR, recombinant CDCP1 ECD
T1 construct: The construct name gives the limits F30-T667 and Q525; also called recombinant CDCP1 ECD; CDCP1 ECD

[6] = biological target: T1, huCDCP1(F30-T667 Q525)-8×His_T3; test: SPR, huCDCP1(F30-T667 Q525)-8×His_T3 as analyte; mAb lot T12
[7] = biological target: T2, CDCP1 on antigen-positive cells (A427; CDCP1+ cells MDA-MB-468, PC3, DU145) (Homo sapiens (Human), UniProt Q9H5V8 30-836, On the FIG. 45 cell lines, part of the CDCP1 is proteolytically cleaved in the extracellular domain; the cleavage site is not stated. The uncleaved mature protein is given.); test: binding to CDCP1+ cells (cell line not given), % Maximum against log concentration, fitted curve
T2 construct: also called the antigen; antigen positive cell-line (A427)

[8] = biological target: T1, huCDCP1(F30-T667 Q525)-8×His_T3; test: SPR, huCDCP1(F30-T667 Q525)-8×His_T3 as analyte; mAb lot T14
[9] = biological target: T2, CDCP1 on antigen-positive cells (A427; …); test: binding to CDCP1+ cells (cell line not given), % Maximum against log concentration, fitted curve; remark: listed apart in the source
[10] = biological target: T2, CDCP1 on antigen-positive cells (A427; …); test: as above; remark: listed apart in the source
[11] = biological target: T2, CDCP1 on antigen-positive cells (A427; …); test: flow cytometry on MDA-MB-468 cells (CDCP1+ cleavage), channel R712-A

COc1cc2c(cc1OCCCC(=O)Nc1cc(C(=O)Nc3ccc(-c4cc(C(=O)Nc5ccc(N)cc5)n(C)c4)cc3)n(C)c1)N=C[C@@H]1CCCCN1C2=O [Compound 26, (S)—N-(4-aminophenyl)-4-(4-(4-(4-((2-methoxy-12-oxo-6a,7,8,9,10,12-hexahydrobenzo[e]pyrido[1,2-a][1,4]diazepin-3-yl)oxy)butanamido)-1-methyl-1H-pyrrol-2-carboxamido)phenyl)-1-methyl-1H-pyrrol-2-carboxamide]
ability to cross-link DNA (conclusion) [1]: incapable of cross-linking DNA | DNA interstrand cross-links ([1]; six concentrations, overnight incubation at 37° C., denaturing gel): not detectable at any concentration | DNA stabilisation and sequence selectivity (biophysical summary) [2]: effectively stabilises DNA with a high degree of sequence-specificity | DNA-binding site (X any base, W adenine or thymine) [2]: XGXWWWW | footprints (preferred sites) on HexA ([2]; overnight incubation of ligand-DNA complexes): only five preferred sites

Adcetris
ADC cyno t1/2 [3]: 45 to 72 h

COc1cc2c(cc1OCCCC(=O)Nc1cc(C(=O)Nc3ccc(N)cc3)n(C)c1)N=C[C@@H]1CCCCN1C2=O [Compound 19, (S)—N-(4-Aminophenyl)-4-(4-((2-methoxy-12-oxo-6a,7,8,9,10,12-hexahydrobenzo[e]pyrido[1,2-a][1,4]diazepin-3-yl)oxy)butanamido)-1-methyl-1H-pyrrol-2-carboxamide]
ability to cross-link DNA (conclusion) [1]: incapable of cross-linking DNA

CC[C@@]1(O)C(=O)OCc2c1cc1n(c2=O)Cc2c-1nc1cc(F)c(C)c3c1c2[C@@H](NC(=O)CO)CC3 [Dxd, reference compound]
tolerability [4]: well tolerated

B1: CDCP1 mAb (unconjugated IgG1 antibody targeted to CDCP1, Sequence 1) (antibody, V domains shown)
VH: EVQLLESGGGLVQPGGSLRLSCAASGFTFSNYAMNWVRQAPGKGLEWVSAISGGGGSTYYADSVKGRFTISRDNSKNTLYLQMNSLRAEDTAVYYCAKESITMVRGVMDYYGMDVWGQGTTVTVSS
VL: DIQLTQSPSFLSASVGDRVTITCRASQGISSYLAWYQQKPGKAPKLLIYAASTLQGGVPSRFSGSGSGTEFTLTISSLQPEDFATYYCQHLNRFPRTFGQGTKVEIK
notes: IgG1; also called unconjugated CDCP1-mAb; unconjugated CDCP1 mAb
Kd [5]: ~1 nM | Kd [6]: 0.8 nM | koff [6]: 0.000468 s⁻¹ | kon [6]: 584000 M⁻¹ s⁻¹ | EC50 [7]: 0.207 µg/mL

B2: ADC3 (CDCP1 mAb conjugated to compound 30, DAR of 8) (antibody, IgG1, V domains shown)
VH: EVQLLESGGGLVQPGGSLRLSCAASGFTFSNYAMNWVRQAPGKGLEWVSAISGGGGSTYYADSVKGRFTISRDNSKNTLYLQMNSLRAEDTAVYYCAKESITMVRGVMDYYGMDVWGQGTTVTVSS
VL: DIQLTQSPSFLSASVGDRVTITCRASQGISSYLAWYQQKPGKAPKLLIYAASTLQGGVPSRFSGSGSGTEFTLTISSLQPEDFATYYCQHLNRFPRTFGQGTKVEIK
modifications: compound 30 (Mal-amido-PEG8-Val-Ala-exatecan) conjugated stochastically to reduced cysteines of the IgG1, average DAR 7.3 (called DAR of 8); sites not stated
notes: also called CDCP1-targeted exatecan conjugate
Kd [8]: 0.57 nM | koff [8]: 0.000422 s⁻¹ | kon [8]: 740000 M⁻¹ s⁻¹ | EC50 [9]: 0.16 µg/mL

B3: CDCP1-vcMMAE (DAR of 4) (antibody, V domains shown)
VH: EVQLLESGGGLVQPGGSLRLSCAASGFTFSNYAMNWVRQAPGKGLEWVSAISGGGGSTYYADSVKGRFTISRDNSKNTLYLQMNSLRAEDTAVYYCAKESITMVRGVMDYYGMDVWGQGTTVTVSS
VL: DIQLTQSPSFLSASVGDRVTITCRASQGISSYLAWYQQKPGKAPKLLIYAASTLQGGVPSRFSGSGSGTEFTLTISSLQPEDFATYYCQHLNRFPRTFGQGTKVEIK
modifications: vc-MMAE (Val-Cit linker, monomethyl auristatin E) conjugated to the antibody, DAR of 4; sites not stated
notes: also called CDCP1-MMAE
Kd [8]: 0.604 nM | koff [8]: 0.00038 s⁻¹ | kon [8]: 629000 M⁻¹ s⁻¹ | EC50 [10]: 0.384 µg/mL

B4: mAbs-CDCPA1 Sequence 2 (anti-CDCP1 antibody, Sequence 2) (antibody, V domains shown)
VH: QVQLVQSGAEVKKPGSSVKVSCKASGGTFSSYAMSWVRQAPGQGLEWMGGIIPILGTTNYAQKFQGRVTITADKSTSTAYMELSSLRSEDTAVYYCAREGLYAFDIWGQGTMVTVSS
VL: DIQMTQSPSSLSASVGDRVTITCRASQSISSYLNWYQQKPGKAPKFLIYVASSLQSGVPSRFSGRGSGTDFTLTISSLQPEDFATYYCQQSYSTPWTFGQGTKVEIK
binding result [11]: binds
